Source: patent US20160122432A1 (INSERM INSTITUT NATIONAL DE LA SANTE ET DE LA RECHERCHE …, published 2016)

Biological target: T1, human HER2 receptor (human, UniProt P04626 23-1255)
T1 construct: whole, on cells; Endogenous HER2 on human cancer cell lines; also called Human Epidermal Growth Factor Receptor 2; Neu
Assay: flow cytometry, biotinylated antibody titrated on SK-BR-3 cells, PE-streptavidin, apparent affinity
Description: After a washing step, bound antibodies were detected using PE-labeled streptavidin and analyzed by FACS. The inverse of the fluorescence was plotted as a function of the inverse of antibody concentration.

B1: HER2.C7b sdAb (VHH, not shown: small tags and cut ends)
VHH: QVQLVQSGGGLVQAGGSLRLSCAASGRTFSSYAMAWFRQAPGKEREFVAAISWSGANIYVADSVKGRFTISRDNAKDTVYLQMNSLKPEDTAVYYCAVKLGFAPVEERQYDYWGQGTQVTVSS
modifications: biotinylated in vitro (Ez-link micro NHS-PEO4-biotinylation kit) for the affinity determination; sites not stated
notes: also called sdAb HER2.C7b; anti HER2 sdAb HER2.C7b
For B1, the Kd was 51.6 nM.

B2: HER2.C7b-Fc (Fc fusion)
chain: B1 VHH
modifications: biotinylated in vitro for the affinity determination; sites not stated
notes: Bivalent for HER2: two HER2.C7b sdAb fused to the constant part of human IgG1; also called Sdab HER2.C7b-Fc; aHER2.C7b-Fc; not shown: hinge, CH1 and CH2 domains of a human IgG1 (so in the source)
For B2, the Kd was 2.9 nM.
